Assay results taken from publication PMC10866687.

target: GFP-tagged Tks5 (GFP-Tks5), in 293T cells; assay: coimmunoprecipitation (IP FLAG, immunoblot quantification); details: n = 4 experiments, parent: est. 100, read off a plot

| Substance | percent of parent [% WT] |
| --- | --- |
| FLAG-MAP1B-LC1 (wild type) (from UniProt P46821) K41A; P42A | 120 |
| FLAG-MAP1B-LC1 (wild type) (from UniProt P46821) P66A; K67A; P68A | 70 |
| FLAG-MAP1B-LC1 (wild type) (from UniProt P46821) P145A; P146A | 130 |
| FLAG-MAP1B-LC1 (wild type) (from UniProt P46821) K60A; P61A | 78 |
| FLAG-MAP1B-LC1 (wild type) (from UniProt P46821) K95A; P96A | 110 |
| FLAG-MAP1B-LC1 (wild type) (from UniProt P46821) P6A; R7A | 120 |
